According to IntAct's records for PubMed 21893288:

B1: BAR/IMD domain-containing adapter protein 2 (Homo sapiens), Q9UQB8-4 (parent)
chain: MSLSRSEEMHRLTENVYKTIMEQFNPSLRNFIAMGKNYEKALAGVTYAAKGYFDALVKMGELASESQGSKELGDVLFQMAEVHRQIQNQLEEMLKSFHNELLTQLEQKVELDSRYLSAALKKYQTEQRSKGDALDKCQAELKKLRKKSQGSKNPQKYSDKELQYIDAISNKQGELENYVSDGYKTALTEERRRFCFLVEKQCAVAKNSAAYHSKGKELLAQKLPLWQQACADPSKIPERAVQLMQQVASNGATLPSALSASKSNLVISDPIPGAKPLPVPPELAPFVGRMSAQESTPIMNGVTGPDGEDYSPWADRKAAQPKSLSPPQSQSKLSDSYSNTLPVRKSVTPKNSYATTENKTLPRSSSMAAGLERNGRMRVKAIFSHAAGDNSTLLSFKEGDLITLLVPEARDGWHYGESEKTKMRGWFPFSYTRVLDSDGSDRLHMSLQQGKSSSTGNLLDKDDLAIPPPDYGAASRAFPAQTASGFKQRPYSVAVPAFSQGLDDYGARSMSSGSGTLVSTV

Assays:
[1] = variants of: B1; conditions: with tir_eco27 tir
[2] = variants of: B1; conditions: with tir_eco57 tir
[3] = variants of: B1; conditions: with tir_eco27 tir; remark: listed apart in the source
[4] = variants of: B1; conditions: with tir_eco57 tir; remark: listed apart in the source

Row | Variant | effect of a mutation on the interaction [1] | effect of a mutation on the interaction [2] | effect of a mutation on the interaction [3] | effect of a mutation on the interaction [4]
1 | MSLSRSEEMHRLTENVYKTIMEQFNPSLRNFIAMGKNYEKALAGVTYAAKGYFDALVKMGELASESQGSKELGDVLFQMAEVHRQIQNQLEEMLKSFHNELLTQLEQKVELDSRYLSAALKKYQTEQRSKGDALDKCQAELKKLRKKSQGSKNPQKYSDKELQYIDAISNKQGELENYVSDGYKTALTEERRRFCALVEKQCAVAKNSAAYHSKGKELLAQKLPLWQQACADPSKIPERAVQLMQQVASNGATLPSALSASKSNLVISDPIPGAKPLPVPPELAPFVGRMSAQESTPIMNGVTGPDGEDYSPWADRKAAQPKSLSPPQSQSKLSDSYSNTLPVRKSVTPKNSYATTENKTLPRSSSMAAGLERNGRMRVKAIFSHAAGDNSTLLSFKEGDLITLLVPEARDGWHYGESEKTKMRGWFPFSYTRVLDSDGSDRLHMSLQQGKSSSTGNLLDKDDLAIPPPDYGAASRAFPAQTASGFKQRPYSVAVPAFSQGLDDYGARSMSSGSGTLVSTV [F196A] | disrupting interaction | disrupting interaction | decreasing interaction | decreasing interaction
2 | MSLSRSEEMHRLTENVYKTIMEQFNPSLRNFIAMGKNYEKALAGVTYAAKGYFDALVKMGELASESQGSKELGDVLFQMAEVHRQIQNQLEEMLKSFHNELLTQLEQAVELDSRYLSAALKKYQTEQRSKGDALDKCQAELKKLRKKSQGSKNPQKYSDKELQYIDAISNKQGELENYVSDGYKTALTEERRRFCFLVEKQCAVAKNSAAYHSKGKELLAQKLPLWQQACADPSKIPERAVQLMQQVASNGATLPSALSASKSNLVISDPIPGAKPLPVPPELAPFVGRMSAQESTPIMNGVTGPDGEDYSPWADRKAAQPKSLSPPQSQSKLSDSYSNTLPVRKSVTPKNSYATTENKTLPRSSSMAAGLERNGRMRVKAIFSHAAGDNSTLLSFKEGDLITLLVPEARDGWHYGESEKTKMRGWFPFSYTRVLDSDGSDRLHMSLQQGKSSSTGNLLDKDDLAIPPPDYGAASRAFPAQTASGFKQRPYSVAVPAFSQGLDDYGARSMSSGSGTLVSTV [K108A] | disrupting interaction | disrupting interaction |  | 
